Measured values as given in patent US20250154198A1, “PEPTIDE INHIBITORS OF INTERLEUKIN-23 RECEPTOR” (Zealand Pharma A/S, priority 2021, published 2025).
Like-named read-outs stand apart in the source and are kept apart here. *1 amine or outer side, *2 acyl side, *3 side chain or, on linkers, in order; H or OH if unused. Bridges are numbered along the chain shown (N, C = ends). [ ]: non-standard residue; d: D form. 1,3‑dibromopropan‑2‑one = linker (CAS 816-39-7) joining two Cys as 1,3-dithio-propan-2-one bridge -SCH2C(=O)CH2S-; 2Nal = N[C@@H](Cc1ccc2ccccc2c1)C(=O)O; AEF = NCCOc1ccc(C[C@H](N)C(=O)O)cc1; CH2COCH2 = O=C(C[*:1])C[*:2]; 3Amb = NCc1cccc(C(=O)O)c1

Columns and labels:
[1] = target: T1, Nluc-IL23R fusion protein (human, UniProt Q5VWK5 22-629); assay: BRET displacement of TAMRA-labelled peptide, Nluc-IL23R membranes
T1 construct: range 22-629; Stably expressed in HEK293 cells; also called hIL-23R; human IL-23R fused to a Nanoluc luciferase enzyme; not shown: Nanoluc luciferase (Promega N1371 plasmid) at the N-terminus
T1 sequence (looked up): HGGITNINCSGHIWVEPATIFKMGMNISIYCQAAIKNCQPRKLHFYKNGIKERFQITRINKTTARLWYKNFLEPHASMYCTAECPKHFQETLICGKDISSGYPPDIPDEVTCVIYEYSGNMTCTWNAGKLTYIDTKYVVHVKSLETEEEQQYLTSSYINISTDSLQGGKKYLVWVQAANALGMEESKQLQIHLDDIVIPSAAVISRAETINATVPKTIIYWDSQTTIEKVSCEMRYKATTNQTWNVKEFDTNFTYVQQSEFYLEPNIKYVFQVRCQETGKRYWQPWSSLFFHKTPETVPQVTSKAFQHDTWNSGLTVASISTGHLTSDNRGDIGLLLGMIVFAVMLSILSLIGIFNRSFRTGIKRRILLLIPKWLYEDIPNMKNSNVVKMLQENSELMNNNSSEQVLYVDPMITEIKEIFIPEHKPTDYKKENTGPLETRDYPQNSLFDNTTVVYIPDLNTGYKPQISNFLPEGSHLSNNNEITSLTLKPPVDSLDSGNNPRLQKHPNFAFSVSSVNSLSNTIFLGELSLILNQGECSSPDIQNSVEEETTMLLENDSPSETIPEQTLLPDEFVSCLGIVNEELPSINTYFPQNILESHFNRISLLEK

[2] = target: T2, human IL-23R endogenously expressed on DB cells (CRL-2289) (human, UniProt Q5VWK5 24-629); assay: cell-based or functional assay
T2 sequence (looked up): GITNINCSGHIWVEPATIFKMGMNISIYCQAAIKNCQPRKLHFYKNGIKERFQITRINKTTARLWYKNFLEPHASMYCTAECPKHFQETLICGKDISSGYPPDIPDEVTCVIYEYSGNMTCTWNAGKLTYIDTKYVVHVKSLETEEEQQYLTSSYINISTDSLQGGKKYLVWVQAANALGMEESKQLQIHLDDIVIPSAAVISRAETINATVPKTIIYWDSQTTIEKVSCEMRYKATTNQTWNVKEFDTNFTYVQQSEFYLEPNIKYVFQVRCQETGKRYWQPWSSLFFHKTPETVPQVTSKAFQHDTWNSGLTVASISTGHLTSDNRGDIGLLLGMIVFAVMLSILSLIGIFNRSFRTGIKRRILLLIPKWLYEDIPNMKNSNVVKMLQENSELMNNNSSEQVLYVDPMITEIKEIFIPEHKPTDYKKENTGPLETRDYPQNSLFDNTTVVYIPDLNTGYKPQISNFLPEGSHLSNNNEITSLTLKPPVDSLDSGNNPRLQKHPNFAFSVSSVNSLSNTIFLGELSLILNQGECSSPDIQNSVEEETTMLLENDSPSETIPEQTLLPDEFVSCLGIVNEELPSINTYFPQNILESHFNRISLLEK

[3] = target: T2, human IL-23R endogenously expressed on …; assay: cell-based or functional assay; remark: listed apart in the source
[4] = target: T1, Nluc-IL23R fusion protein; assay: BRET displacement of TAMRA-labelled peptide, Nluc-IL23R membranes; remark: listed apart in the source
Description: (§1) The plate was sealed with light impermeable plate seals, and incubated on a orbital shaker 400 rpm for 2 hours at room temperature. To determine the BRET ratio, the plate seal was removed and 25 μL of the Nanoluc substrate (Promega N1572) diluted 1:500 was added to each well and incubated for 1-2 minutes on an orbital shaker at 400 rpm. […] The BRET ratio was calculated as the fluorescence from the TAMRA/nanoluc bioluminescence. The IC₅₀ for each compound was determined by computer-aided curve fitting using a 4-parameter logistic (4PL) non-linear model.

[5] = target: T2, human IL-23R endogenously expressed on …; assay: cell-based or functional assay; remark: listed apart in the source
[6] = target: T1, Nluc-IL23R fusion protein; assay: BRET displacement of TAMRA-labelled peptide, Nluc-IL23R membranes; remark: listed apart in the source
Description: as §1

[7] = target: T2, human IL-23R endogenously expressed on …; assay: cell-based or functional assay; remark: listed apart in the source
[8] = target: T2, human IL-23R endogenously expressed on …; assay: cell-based or functional assay; remark: listed apart in the source
[9] = target: T1, Nluc-IL23R fusion protein; assay: BRET displacement of TAMRA-labelled peptide, Nluc-IL23R membranes; remark: listed apart in the source
Description: as §1

[10] = target: T1, Nluc-IL23R fusion protein; assay: as above; remark: listed apart in the source
[11] = target: T1, Nluc-IL23R fusion protein; assay: as above; remark: listed apart in the source
Description: as §1

[12] = target: T2, human IL-23R endogenously expressed on …; assay: cell-based or functional assay; remark: listed apart in the source
[13] = target: T2, human IL-23R endogenously expressed on …; assay: cell-based or functional assay; remark: listed apart in the source
[14] = target: T1, Nluc-IL23R fusion protein; assay: BRET displacement of TAMRA-labelled peptide, Nluc-IL23R membranes; remark: listed apart in the source
Description: as §1

[15] = target: T1, Nluc-IL23R fusion protein; assay: as above; remark: listed apart in the source
Description: as §1

[16] = target: T2, human IL-23R endogenously expressed on …; assay: cell-based or functional assay; remark: listed apart in the source
[17] = target: T2, human IL-23R endogenously expressed on …; assay: cell-based or functional assay; remark: listed apart in the source
[18] = target: T1, Nluc-IL23R fusion protein; assay: BRET displacement of TAMRA-labelled peptide, Nluc-IL23R membranes; remark: listed apart in the source
Description: as §1

[19] = target: T2, human IL-23R endogenously expressed on …; assay: cell-based or functional assay; remark: listed apart in the source

B1: I4 (isomer 3) (peptide)
peptide: H-ECWLCYYRNCNCM-NH2
modifications: linker 5-10, 2-12 via 1,3‑dibromopropan‑2‑one
notes: Peptide of Heinis et al., 2020, synthesised and tested by the inventors
For B1, which Ki [1] is on record?
The Ki was over 1000 nM.

What about the “IC50 (pSTAT3)” value [2] of the same binder?
Its value is over 1 µM.

What about the “IC50 (pSTAT3)” value [3] of the same binder?
The value was over 1 µM.

B2: Compound 18 (peptide)
peptide: Ac-KSCWQCW[2Nal]LER-NH2
modifications: lactam 1-10; linker 3-6 via CH2COCH2
Which results are given for B2?
Ki [4]: 2.85 nM; IC50 (pSTAT3) [5]: 17.6 nM; Ki [6]: 2.85 nM; IC50 (pSTAT3) [3]: 17.6 nM; IC50 (pSTAT3) [7]: 17.6 nM; IC50 (pSTAT3) [8]: 17.6 nM; Ki [9]: 2.85 nM; Ki [10]: 2.85 nM

B3: Compound 4 (peptide)
peptide: H-DESCWQCWWLKR-NH2
modifications: lactam 2-11; linker 4-7 via 1,3‑dibromopropan‑2‑one
How did the Ki [11] turn out when B3 was run?
Its Ki is 143 nM.

What about the “IC50 (pSTAT3)” value [3] of the same binder?
The value was 847 nM.

What about the “IC50 (pSTAT3)” value [12] of the same binder?
Its value is over 1 µM.

And the “IC50 (pSTAT3)” value [13]?
The value was over 1 µM.

What about the Ki [14] of the same binder?
Its Ki is 143 nM.

And the Ki [15]?
Its Ki is 143 nM.

What about the “IC50 (pSTAT3)” value [16] of the same binder?
Its value is over 1 µM.

And the Ki [10]?
Its Ki is 143 nM.

B4: Compound 29 (peptide)
peptide: Ac-KSCWQC[AEF][2Nal]LER-NH2
modifications: lactam 1-10; linker 3-6 via CH2COCH2
SMILES: CC(=O)N[C@H]1CCCCNC(=O)CC[C@@H](C(=O)N[C@@H](CCCNC(=N)N)C(N)=O)NC(=O)[C@H](CC(C)C)NC(=O)[C@H](Cc2ccc3ccccc3c2)NC(=O)[C@H](Cc2ccc(OCCN)cc2)NC(=O)[C@@H]2CSCC(=O)CSC[C@H](NC(=O)[C@H](CO)NC1=O)C(=O)N[C@@H](Cc1c[nH]c3ccccc13)C(=O)N[C@@H](CCC(N)=O)C(=O)N2
With B4 as the binder, how does the “IC50 (pSTAT3)” value [3] read?
The value was 19.7 nM.

What about the “IC50 (pSTAT3)” value [8] of the same binder?
Its value is 19.7 nM.

B5: Compound 19 (peptide)
peptide: DKSCWQCWXLER
HELM: PEPTIDE1{[ac].D.K.S.C.W.Q.C.W.[O=C([C@H](Cc1ccc2ccccc2c1)N[*:1])[*:2]].L.E.R.[am]}|CHEM1{[O=C(C[*:1])C[*:2]]}$PEPTIDE1,PEPTIDE1,3:R3-12:R3|PEPTIDE1,CHEM1,5:R3-1:R1|PEPTIDE1,CHEM1,8:R3-1:R2$$$V2.0
SMILES: CC(=O)N[C@@H](CC(=O)O)C(=O)N[C@H]1CCCCNC(=O)CC[C@@H](C(=O)N[C@@H](CCCNC(=N)N)C(N)=O)NC(=O)[C@H](CC(C)C)NC(=O)[C@H](Cc2ccc3ccccc3c2)NC(=O)[C@H](Cc2c[nH]c3ccccc23)NC(=O)[C@@H]2CSCC(=O)CSC[C@H](NC(=O)[C@H](CO)NC1=O)C(=O)N[C@@H](Cc1c[nH]c3ccccc13)C(=O)N[C@@H](CCC(N)=O)C(=O)N2
B5 was tested. Which “IC50 (pSTAT3)” value [3] did it give?
Its value is 33.2 nM.

And the “IC50 (pSTAT3)” value [17]?
The value was 32.3 nM.

And the “IC50 (pSTAT3)” value [7]?
Its value is 32.3 nM.

And the Ki [10]?
Its Ki is 6.33 nM.

B6: Compound 17 (peptide)
peptide: Ac-DESCWQCW[2Nal]LKR-NH2
modifications: lactam 2-11; linker 4-7 via CH2COCH2
Which “IC50 (pSTAT3)” value [3] does the source give for B6 here?
Its value is 366 nM.

What about the “IC50 (pSTAT3)” value [12] of the same binder?
Its value is 366 nM.

And the Ki [15]?
The Ki was 70.7 nM.

What about the Ki [10] of the same binder?
The Ki was 70.7 nM.

B7: Compound 37 (peptide)
peptide: [3Amb]SCWQCW[2Nal]LER-NH2
modifications: lactam N-10; linker 3-6 via CH2COCH2
Which results are given for B7?
IC50 (pSTAT3) [5]: 44.6 nM; Ki [6]: 9.86 nM; IC50 (pSTAT3) [3]: 44.6 nM; Ki [18]: 9.86 nM; IC50 (pSTAT3) [19]: 44.6 nM; Ki [10]: 9.87 nM
